Assay results as given in PMC10164574, “Fission yeast Swi2 designates cell-type specific donor and stimulates Rad51-driven strand exchange for mating-type switching”.

Target: T1, Swi2N (Schizosaccharomyces pombe, UniProt Q10668 1-391)
T1 sequence: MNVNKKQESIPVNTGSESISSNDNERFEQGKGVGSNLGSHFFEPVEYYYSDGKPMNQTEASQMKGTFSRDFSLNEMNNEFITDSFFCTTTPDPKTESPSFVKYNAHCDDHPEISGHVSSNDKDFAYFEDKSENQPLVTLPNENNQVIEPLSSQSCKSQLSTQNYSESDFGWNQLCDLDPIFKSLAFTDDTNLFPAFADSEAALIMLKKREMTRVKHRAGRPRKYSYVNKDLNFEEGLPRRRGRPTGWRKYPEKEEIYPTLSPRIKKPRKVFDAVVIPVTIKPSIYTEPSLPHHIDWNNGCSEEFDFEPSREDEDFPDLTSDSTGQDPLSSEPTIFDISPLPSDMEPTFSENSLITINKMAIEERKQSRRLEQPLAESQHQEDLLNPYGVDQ
Experiment: EMSA; 20 mM Tris-HCl pH 7.5, 100 mM NaCl, 5% glycerol, 1 mM DTT, room temperature 10 min; 1% agarose in TAE
Details: protein: recombinant; tags: His-SUMO removed by Ulp1; label: 5' FAM; single strand

B1: FAM-H1 (59 nt) (ssDNA)
DNA: CATGGAAACGAACGAGAGAAAACAAAGGAGAAAGACTATACATTTATATTACAAAAAAA
binding result: no binding
